Experimental data from the supplement of paper PMC12764529.
± gives the half width of the 95% confidence interval.

Experiments:
[1] = folding stability dG unfold from trypsin proteolysis; higher = more stable
Summary of the method: (§1)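 K50 was inferred by Bayesian fitting of sequencing counts obtained after protease digestion of designed mini-proteins. Unfolding free energy was derived by comparison with a sequence-predicted unfolded-state K50 and a shared folded-state K50, for each protease or both combined. The mini-proteins were under 80 residues, had no cysteine, were carried in a PA-tagged cDNA display construct, and were kept only if AlphaFold2 dimer inter-PAE exceeded 15.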

[2] = folding stability dG unfold from chymotrypsin proteolysis; higher = more stable
Summary of the method: as §1

[3] = folding stability dG unfold (combined trypsin and chymotrypsin); higher = more stable
Summary of the method: as §1

Sequence | folding stability dG unfold [1] [kcal/mol] | folding stability dG unfold [2] [kcal/mol] | folding stability dG unfold [3] [kcal/mol]
SAGWIIRITLPDNGRTIEIDFENGYIIKITSPDEGKPRVIPIPPDDIREWIKELFPGPVRIVEIYPLPKSAG [r5_519_TrROS] | 2.21 ± 0.042 | 3.09 ± 0.05 | 2.69 ± 0.083
SAGWIMINSPEDAERIVEELRKLLPPGYKIDVEPMPNGSVMIEFENPEEGREIKIHYDRRNGMYWIEPVSAG [r5_358_TrROS] | 2.58 ± 0.13 | 2.54 ± 0.079 | 2.59 ± 0.11
SAGWISPKQLRHALRNGKPIKIYMPNPQNKEHAKNWLRQETGLPKEEQKELLKDVKIEPMPPNDPNFKKSAG [r5_368_TrROS] | 0.128 ± 0.33 | 0.497 ± 0.47 | -0.0521 ± 0.45
SAGWYIKVEVYYGGKKHTFMIPRKQAKELRKKYPPGDEIPIPFNGRDVEIRVQVIPPPPPSPEDAADNKSAG [r5_669_TrROS] | 1.83 ± 0.047 | 2.75 ± 0.12 | 2.44 ± 0.17
SAGYEWVRELAKKKGFKDIKIEDVQPQRPPDGMEYMHVRIEVQHPGKKREVDIWMRPDNIEEALEQALKSAG [r5_549_TrROS] | 0.402 ± 0.096 | 0.993 ± 0.08 | 0.766 ± 0.11
SAHITISIEVPLPNLKGQTPEEAREVAKDKAREIAKMFNPEFGIKVKEVEVEPHPDEGWLKVDITFEPKSAG [r14_310_TrROS] | 0.998 ± 0.058 | 0.596 ± 0.05 | 0.824 ± 0.2
SAHRIMIMFDSPEQAEEIIRKIAEEMGWKPKNIDVEVHPFPVTRPTPDGKKEEHPMYWVTIEIKLKPKKSAG [r14_773_TrROS] | 1.94 ± 0.066 | 2.84 ± 0.096 | 2.37 ± 0.27
SAHTISIRIPPNMKPITAEELKKEPGYEVKDINVYPNEDGNMYFTIEVEPGMPPKKMDEILERIRDRMGSAG [r14_421_TrROS] | 0.764 ± 0.034 | 0.911 ± 0.038 | 0.862 ± 0.059
SAIKIEEIKDVNPENKNIRIKIEMPGGPHEIPIPAKSEMDVEEALDLILDWFERHFPPGHKMRIEEIEISAG [r14_422_TrROS] | 0.886 ± 0.091 | -0.0828 ± 0.13 | 0.341 ± 0.1
SAIPINLPPGDKVKITFRNPDGSRMEIEFDPENGKWKVKMRPNDGKKQEQTIPAGNLDDLPPGVYSIEPVSA [r9_1110_TrROS] | 1.08 ± 0.16 | 1.78 ± 0.27 | 1.33 ± 0.26
SAIVLVVADDSPEEAVERARRFAATLRERLVREGYPDADVPIVVEVRAVPPPVPVPVRLPDGDEVVPAPSAG [r14_475_TrMRF] | 0.647 ± 0.1 | 1.7 ± 0.044 | 1.32 ± 0.064
SAKAELEIKFPGWKVTVEIEDVDPKNDMVKLKAFFRNGWVFTQTVNPDDGKIEIPIIPVKPDPDGKWKFSAG [r14_466_TrROS] | 1.21 ± 0.032 | 1.38 ± 0.096 | 1.35 ± 0.091
SAKEEYYKVRIYFPETNEVVEIEAKSEEEALEALKKLLNEPNIVKIEIEKVEVEEEPEEKEYSEEELKSSAG [r14_747_TrROS_Hall] | 2.02 ± 0.04 | 2.39 ± 0.046 | 2.32 ± 0.12
SAKEIASGTFLLDNGATLTVTSIKYDPETGKVSIPVELTVYVPKIDPNDPNKPTIEPFTFKITFTFKVDSAG [r14_888_TrMRF] | 2.51 ± 0.073 | 3.78 ± 0.026 | 3.34 ± 0.087
SAKILEIKPLPDGTVIIKIPVDAPEDVDPKEVKILVKSEEGVKEAEILEDGTIDIVVENVKDVKIEIFVESA [r9_722_TrMRF] | 0.305 ± 0.061 | 0.382 ± 0.074 | 0.359 ± 0.1
SAKITIFFPFDAVKEILDLLKENGVEVNIERHPGNPWYSATITRPDPNGKELPIEIMMFPDHGYVQITLSAG [r14_169_TrROS] | 2.65 ± 0.14 | 2.62 ± 0.04 | 2.57 ± 0.13
SAKIVVKLPEKPKVAVIEFPPGMTKEEILKALEEVPGLSEEEREALKKKIEELEALAKNPELLKKLEEESAG [r14_732_TrROS_Hall] | -0.378 ± 0.087 | 1.19 ± 0.051 | 0.797 ± 0.12
SAKKAEEIAEKVEKTIKEAAKEKGYDVNIKVKATKGKDGKVTVYIDFDSPENAKEFIEKLPKSVNVVIASAG [r14_491_TrMRF] | 1.3 ± 0.052 | 1.42 ± 0.059 | 1.41 ± 0.11

Sequence | folding stability dG unfold [1] [kcal/mol] | folding stability dG unfold [2] [kcal/mol] | folding stability dG unfold [3] [kcal/mol]
SAKKKYIAKVLIEKGDKIIEIEIPGDATVKNPDGKEYTFKVESPEKLKEAIKKLFPEKYPAKILEVKEESAG [r14_41_TrMRF] | 1.18 ± 0.058 | 1.73 ± 0.087 | 1.54 ± 0.18
SAKKPLYLIIVKIGPDGKEIVIVAESEEEARKAAEEELRKLFPDLEIKEIKIIPLEKVKTKEEALELLKSAG [r14_900_TrROS_Hall] | 2.16 ± 0.066 | 1.92 ± 0.07 | 1.89 ± 0.16
SAKKTITITKITLTLFNKDGKPVATAEITSIEITYDPKTNTFTITATVKVTLPNGKTFTFKLTITLPVKSAG [r14_609_TrROS_Hall] | 3.91 ± 0.18 | 4.87 ± 0.21 | 4.55 ± 0.41
SAKKTITLTITNEDGSTFTITITDNKITITNKDNGLVAEAEILPDGTIKLKIYNKNGELIAEITLKIKDSAG [r14_213_TrROS_Hall] | 3.18 ± 0.32 | 4.32 ± 0.049 | 4.09 ± 0.26
SAKKVEVKKIKVEVTFYDKNGKKVKKKKATITVVKVDGKYYVTIYDENTGKKYVFEFPSLEEAKKALKKSAG [r14_508_TrROS_Hall] | 1.91 ± 0.11 | 3.09 ± 0.044 | 2.77 ± 0.33
SAKKVIIEVKSLEELLKAAKEAAKKGEKVEVLVKLKDGYYVKITMEFDKKTKKIKIKKIEIKPIKKEDLSAG [r14_455_TrROS_Hall] | 2.51 ± 0.12 | 2.75 ± 0.21 | 2.46 ± 0.38
SAKKVPKIEKIEFIPGPNLVKITIPVPEKDKLLVTIDLKDKKLEFELKKNTSFYFSAKYADIKVSVEKKSAG [r14_96_TrMRF] | 2.28 ± 0.16 | 3.11 ± 0.14 | 3 ± 0.2
SAKLAEEIAKKILPEVKEVKILKIEVKKDPKSKFKVIKIEMLVKMPKGEKKIKIEIKPGKPKIKIIPLDSAG [r14_397_TrMRF] | 2.16 ± 0.09 | 2.85 ± 0.1 | 2.67 ± 0.22
SAKLEIELNGYKIVSVEVNEDGTVKMKIEVDGKLYELTLKVKLPPPKVEVKEEKKEVKEVKFVKEGEEKSAG [r14_218_TrROS_Hall] | 1.18 ± 0.096 | 2.15 ± 0.094 | 2.05 ± 0.3
SAKMTAEEIAAALAEELGLEVVEVVEVDEETGKITIRVDGKLIEITVVEEDGELKIEVRVVDEETGEELSAG [r14_270_TrROS_Hall] | 1.84 ± 0.087 | 0.852 ± 0.073 | 1.36 ± 0.18
SAKMVVLKAYFKGDGDEIKEIADAIDFPYTIEKIPDYPDYYIATFVFPTEEKAPEWEKALKEKGYIVEGSAG [r14_745_TrMRF] | 1.88 ± 0.04 | 2.48 ± 0.037 | 2.25 ± 0.049
SAKPPKVEVKTVRVTIKVRNKDGSTYTITKEVTEVRVEVDGKTVTVTSIKITIELPPGITEVEIKIEKVSAG [r14_892_TrROS_Hall] | 3.61 ± 0.49 | 4.84 ± 0.29 | 4.47 ± 0.47
SAKTLTIEELAKKLKEELEKKTGKKLSKEELKKKALELAKKLAEEKGLKIKSVKVEEKDGKLTVTVEVESAG [r14_147_TrROS_Hall] | 3.2 ± 0.16 | 3.26 ± 0.082 | 2.84 ± 0.15
SAKTVKVRIELTLTVVKVTLDPETGELKVEEVKTLTLEIELEMSEEDLEKARRALEEELKRLLEELGIPSAG [r14_308_TrROS_Hall] | 3.64 ± 0.29 | 3.78 ± 0.33 | 3.9 ± 0.37
SAKTVTLKVTLEIEINGVRVKVEATLTLELDENGELKLTLELKIEIEPAPPPKEVKLTEEEKKKLEELKSAG [r14_442_TrROS_Hall] | 2.44 ± 0.23 | 3.79 ± 0.2 | 3.25 ± 0.69
SAKVYRTKDGKEVKVEKKKVKVKTIEIEIEIEMPKELEEKVKKLAEELAKKLAEELNLPPGAKIKITVRSAG [r14_453_TrROS_Hall] | 2.54 ± 0.06 | 2.04 ± 0.051 | 2.34 ± 0.17
SAKYKIIEAKPGKNVVTITVEYTLPNGEKLTKPIPINAINPVIVEVSEDSITIYDPNNGKLITFPAEKLSAG [r14_947_TrMRF] | 2.1 ± 0.12 | 2.87 ± 0.037 | 2.49 ± 0.12
